Changes are numbered by the printed parent chain. Names may count otherwise.
Molecular target: human PP2A B56γ1(30–380) (human, UniProt Q13362-2 30-380)
Experiment: ITC; B56γ1 in the cell at 0.03 mmol/L, BubR1 protein or peptide at 0.7 mmol/L injected (20 x 1.5 µL); room temperature; 20 mmol/L Tris-HCl pH 8.0, 200 mmol/L NaCl; one-site model
Settings: both partners purified

B1: human BubR1(647–720)-3D (S670D/S676D/T680D) (domain or fragment)
chain: KTSEDQQTACGTIYSQTLSIKKLDPIIEDDREADHSSGFSGSSASVASTSSIKCLQIPEKLELTNETSENPTQS
notes: also called BubR1-3D; source: E. coli BL21 (DE3), purified (Glutathione Sepharose 4B, TEV cleavage, Hitrap Q HP)
Kd: 2.27 ± 0.37 µM
dH: -119 ± 3.47 kJ/mol
stoichiometry N: 1.02 ± 0.02

B2: human BubR1(647–720; E678A/T680A/H681A) (domain or fragment)
chain: B1 chain with D24S, D30S, E32A, D34A, H35A
notes: also called BubR1-AAAA; source: E. coli BL21 (DE3), purified the same way as wild type
Kd: 10.6 ± 1.72 µM
dH: -40.8 ± 2.68 kJ/mol
stoichiometry N: 1.02 ± 0.05

From article PMC4930772, “Crystal structure of a PP2A B56-BubR1 complex and its implications for PP2A substrate recruitment and localization” (Protein & Cell, 2016)
